Assay results reported in paper PMC12412624, “Engineered Cas12j‐8 is a Versatile Platform for Multiplexed Genome Modulation in Mammalian Cells”.
Changes are numbered by the printed parent chain.

Legend:
[1] = tested on: T1, dCas12j-8 E258R+D495R+D527R E258R;D495R;D527R;D369A;E567A;D658A (bacteriophage (metagenome)); conditions: HEK293T cells; panel 1e (compare within a panel only); scale: mean GFP / mean GFP of wild type, printed, no background subtraction
T1 sequence: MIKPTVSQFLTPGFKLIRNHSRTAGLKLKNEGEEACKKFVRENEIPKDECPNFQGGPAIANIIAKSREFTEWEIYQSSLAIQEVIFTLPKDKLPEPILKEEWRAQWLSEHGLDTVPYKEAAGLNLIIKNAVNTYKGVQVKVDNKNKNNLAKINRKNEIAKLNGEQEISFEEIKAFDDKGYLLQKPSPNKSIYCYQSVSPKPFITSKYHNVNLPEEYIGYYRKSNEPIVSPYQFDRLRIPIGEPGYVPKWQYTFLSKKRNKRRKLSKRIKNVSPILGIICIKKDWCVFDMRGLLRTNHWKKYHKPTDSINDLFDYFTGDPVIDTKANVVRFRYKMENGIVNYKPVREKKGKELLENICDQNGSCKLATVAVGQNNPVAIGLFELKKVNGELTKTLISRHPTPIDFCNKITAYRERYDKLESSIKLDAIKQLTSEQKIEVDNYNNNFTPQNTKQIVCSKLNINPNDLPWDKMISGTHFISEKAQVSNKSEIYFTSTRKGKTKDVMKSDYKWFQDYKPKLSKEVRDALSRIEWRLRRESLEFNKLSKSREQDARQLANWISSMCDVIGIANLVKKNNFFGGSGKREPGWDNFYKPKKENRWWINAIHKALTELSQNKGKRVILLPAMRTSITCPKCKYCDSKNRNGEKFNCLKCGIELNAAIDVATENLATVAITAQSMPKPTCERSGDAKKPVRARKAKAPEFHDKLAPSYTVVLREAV

[2] = tested on: T2, dCas12j-8 E258R+D313R+D495R+D527R+E547R E258R;D313R;D495R;D527R;E547R;D369A;E567A;D658A (bacteriophage (metagenome)); conditions: HEK293T cells; panel 1e (compare within a panel only); scale: mean GFP / mean GFP of wild type, printed, no background subtraction
T2 sequence: T1 sequence with D313R, E547R

[3] = tested on: T3, dCas12j-8 E258R+D495R E258R;D495R;D369A;E567A;D658A (bacteriophage (metagenome)); conditions: HEK293T cells; panel 1d (compare within a panel only); scale: mean GFP / mean GFP of wild type, printed, no background subtraction
T3 sequence: T1 sequence with R527D

“CUUUCAAGACUAAUAGAUUGCUCCUUACGAGGAGACACUCCCUAUCAGUGAUAGAG / TTNACTCCCTATCAGTGATAGAG / CTCTATCACTGATAGGGAGTNAA [TetO]” gave a binding signal [1] of 3.63, a binding signal [2] of 5.89 and a binding signal [3] of 3.18.
